Ends that are not written are not given here.
Legend:
[1] = target: T1, recombinant human VCAM-1/Fc chimera (human, UniProt P19320 25-698); experiment: cell-based or functional assay
T1 sequence (looked up): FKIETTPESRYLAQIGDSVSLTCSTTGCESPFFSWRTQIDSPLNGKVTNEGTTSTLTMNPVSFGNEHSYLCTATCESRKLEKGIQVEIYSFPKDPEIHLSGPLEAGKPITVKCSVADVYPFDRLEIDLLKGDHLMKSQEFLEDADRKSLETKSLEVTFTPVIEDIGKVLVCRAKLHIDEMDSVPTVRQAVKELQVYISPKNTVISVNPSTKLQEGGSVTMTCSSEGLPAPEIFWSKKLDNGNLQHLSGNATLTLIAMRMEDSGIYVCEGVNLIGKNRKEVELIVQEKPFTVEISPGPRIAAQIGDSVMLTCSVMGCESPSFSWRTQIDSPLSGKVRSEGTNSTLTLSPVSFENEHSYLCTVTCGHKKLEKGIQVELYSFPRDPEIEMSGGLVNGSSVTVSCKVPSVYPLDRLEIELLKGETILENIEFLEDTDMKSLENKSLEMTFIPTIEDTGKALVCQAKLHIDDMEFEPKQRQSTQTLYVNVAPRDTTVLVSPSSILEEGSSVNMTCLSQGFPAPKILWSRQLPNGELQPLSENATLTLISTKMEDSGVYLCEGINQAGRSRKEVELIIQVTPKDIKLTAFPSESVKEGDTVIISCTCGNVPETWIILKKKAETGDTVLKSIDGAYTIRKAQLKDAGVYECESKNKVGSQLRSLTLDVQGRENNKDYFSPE

[2] = target: T1, recombinant human VCAM-1/Fc chimera; experiment: ELISA: peptide immobilized on the plate, VCAM-1/Fc at increasing concentrations (3.9×10^-9-4.9×10^-7 M), detected with a mouse anti-human VCAM-1 mAb; apparent Kd

inhibition of cell adhesion (PMA-stimulated Jurkat cells on immobilized VCAM-1), IC50 [1]: 63 µM
Kd [2]: 0.135 µM
Binder: CNNSKSHTC (not fully specified (bridges); also: cyclic, type of ring bond not given here, also called VCAM PEPTIDE) [cyclic peptide CNNSKSHTC (SEQ ID No. 2)]
